# Reference: PMC10649420, “Expression Patterns and Functional Analysis of Three SmTAT Genes Encoding Tyrosine Aminotransferases in Salvia miltiorrhiza” (International Journal of Molecular Sciences, 2023)
# B1: SmTAT1 (Salvia miltiorrhiza) (protein)
# chain: MELQNPAQEIDAPTTITIKGILGLLMSSTDPKESGKRVISLGIGDPTAYSCFHASNAAQEGVVEALRSTKFNGYAPTAGLPQTREAIAEYLSRDLPYKLPADSVYVTAGCTQAIEIALSVLARPGANILLPRPCFPIYGLCASFRNIEVRYFDLHPEQGWEVDLDAVADLADHNTVAMVIINPGNPCGNVYSYQHLKKIAETAKRLGIVVIADEVYGHLAFGANPFVPMGIFGSIAPVVTLGSLSKRWLVPGWRLGWLVINDPDGSLMSPKFVERIKKYCDICGGPATFIQAAVPEIVEQTQEVFFRKTINILKQTSDICYQKIEDINGITCPTKPKGAMAFMVKLNLSRMKDISDDIDFCFKLAKEESVIILPGLAVGLKNWIRITFAVDVPALEEAMERLKSFCERHSY
# notes: full ORF 1236 bp (about 411 residues) with GST tag (pGEX-4T-1), soluble from E. coli Arctic Express (DE3)
# B2: SmTAT2 (Salvia miltiorrhiza) (protein)
# chain: MPNSTERERERELSMENGGSAAARWRFEGNERLILAGGVTVRGVLNTVIGNLDGNDTRPVIPLGHGDPSAFPSFRTSPFAEDAVCSAVRSTKFNGYSSTVGIPAARSAVAEYLSKDLPYKLSPDDVFLTIGCTQALEAVVTVLARPGANLLLPRPGFPYYEARAGFCSLEFRHFDLLPEQDWEVDLASVEALADENTVAMVIINPGNPCGNVFKYEHLKKVAETARKLGILVISDEVYDHLTFGSNPFVPMGVFASIAPILTLGSISKRWIVPGWRLGWLVTNDPDGILTKQGIVDSIKGFLNISADPATFMQGAVPQILENTPSDFFQKIVSTLRETADICYERSKEIPCITCPSRPEGSMFAMVKLNLSLLEGIEDDMDFCCKLAKEESVILLPGFAVGLKNWLRVTFAIEPSSLDDGFLRIKAFHQRHAKKQ
# Columns and labels:
# Experiment in all cases: aminotransferase assay, product absorbance, microplate reader
# Type in all cases: biochemical, Salvia miltiorrhiza
# SmTAT3 = details: 100 μM PLP, 30 °C, 30 min, 20 μg/mL enzyme
# Excerpt: aminotransferase assay, product absorbance, microplate reader on SmTAT3
# [1] = substrate: N[C@@H](Cc1ccc(O)cc1)C(=O)O; details: 10 mM alpha-ketoglutarate, 100 μM PLP, 30 °C, 30 min, 1 μg/mL enzyme
# Excerpt: (§1) aminotransferase assay, product absorbance, microplate reader on SmTAT1
# [2] = substrate: N[C@@H](Cc1ccccc1)C(=O)O; details: 10 mM alpha-ketoglutarate, 100 μM PLP, 30 °C, 30 min, 1 μg/mL enzyme
# Excerpt: as §1
# [3] = substrate: O=C(O)C(=O)Cc1ccc(O)cc1; details: 10 mM glutamate, 100 μM PLP, 30 °C, 30 min, 1 μg/mL enzyme, reverse reaction
# Excerpt: as §1
# [4] = substrate: O=C(O)C(=O)Cc1ccccc1; details: 10 mM glutamate, 100 μM PLP, 30 °C, 30 min, 1 μg/mL enzyme, reverse reaction
# Excerpt: as §1
# [5] = substrate: N[C@@H](Cc1ccc(O)cc1)C(=O)O; details: 10 mM alpha-ketoglutarate, 100 μM PLP, 30 °C, 30 min, 20 μg/mL enzyme
# Excerpt: (§2) aminotransferase assay, product absorbance, microplate reader on SmTAT2
# [6] = substrate: N[C@@H](Cc1ccccc1)C(=O)O; details: 10 mM alpha-ketoglutarate, 100 μM PLP, 30 °C, 30 min, 20 μg/mL enzyme
# Excerpt: as §2
# [7] = substrate: O=C(O)C(=O)Cc1ccc(O)cc1; details: 10 mM glutamate, 100 μM PLP, 30 °C, 30 min, 20 μg/mL enzyme, reverse reaction
# Excerpt: as §2
# [8] = substrate: O=C(O)C(=O)Cc1ccccc1; details: 10 mM glutamate, 100 μM PLP, 30 °C, 30 min, 20 μg/mL enzyme, reverse reaction
# Excerpt: as §2
# [9] = 10 mM glutamate, reverse reaction
molecule,measurement,setting,value
O=C(O)C(=O)Cc1ccccc1 [phenylpyruvate],Km,SmTAT3; [9],3910 ± 2010 µM
O=C(O)C(=O)Cc1ccc(O)cc1 [4-hydroxyphenylpyruvate],Km,SmTAT3; [9],2220 ± 220 µM
N[C@@H](Cc1ccc(O)cc1)C(=O)O [tyrosine],Km,SmTAT3; 10 mM alpha-ketoglutarate,2730 ± 1610 µM
N[C@@H](Cc1ccccc1)C(=O)O [phenylalanine],Km,SmTAT3; 10 mM alpha-ketoglutarate,5470 ± 3230 µM
B1,Km,[1],310 ± 110 µM
same,Vmax,[1],6.88 µmol/min/mg
same,kcat,[1],19.8 ± 0.93 s⁻¹
same,kcat/Km,[1],74400 ± 29400 M⁻¹ s⁻¹
same,Km,[2],3080 ± 990 µM
same,Vmax,[2],4.36 µmol/min/mg
same,kcat,[2],12.6 ± 1.43 s⁻¹
same,kcat/Km,[2],4680 ± 2020 M⁻¹ s⁻¹
same,Km,[3],2770 ± 520 µM
same,Vmax,[3],3.19 µmol/min/mg
same,kcat,[3],9.21 ± 0.78 s⁻¹
same,kcat/Km,[3],3500 ± 940 M⁻¹ s⁻¹
same,Km,[4],710 ± 210 µM
same,Vmax,[4],3.63 µmol/min/mg
same,kcat,[4],10.4 ± 0.39 s⁻¹
same,kcat/Km,[4],16300 ± 4620 M⁻¹ s⁻¹
B2,Km,[5],3470 ± 1690 µM
same,Vmax,[5],0.0486 µmol/min/mg
same,kcat,[5],0.15 ± 0.03 s⁻¹
same,kcat/Km,[5],60 ± 40 M⁻¹ s⁻¹
same,Km,[6],6930 ± 3390 µM
same,Vmax,[6],0.109 µmol/min/mg
same,Km,[7],480 ± 160 µM
same,Vmax,[7],0.448 µmol/min/mg
same,kcat,[7],1.35 ± 0.08 s⁻¹
same,kcat/Km,[7],3230 ± 1240 M⁻¹ s⁻¹
same,Km,[8],3940 ± 990 µM
same,Vmax,[8],0.057 µmol/min/mg
same,kcat,[8],0.17 ± 0.02 s⁻¹
same,kcat/Km,[8],50 ± 20 M⁻¹ s⁻¹
